To fix the notation:
B5: human IRF5 tagged with one-strep tag (N-terminus) and HA tag (C-terminus) (other)
chain: MNQSIPVAPTPPRRVRLKPWLVAQVNSCQYPGLQWVNGEKKLFCIPWRHATRHGPSQDGDNTIFKAWAKETGKYTEGVDEADPAKWKANLRCALNKSRDFRLIYDGPRDMPPQPYKIYEVCSNGPAPTDSQPPEDYSFGAGEEEEEEEELQRMLPSLSLTEDVKWPPTLQPPTLQPPVVLGPPAPDPSPLAPPPGNPAGFRELLSEVLEPGPLPASLPPAGEQLLPDLLISPHMLPLTDLEIKFQYRGRPPRALTISNPHGCRLFYSQLEATQEQVELFGPISLEQVRFPSPEDIPSDKQRFYTNQLLDVLDRGLILQLQGQDLYAIRLCQCKVFWSGPCASAHDSCPNPIQREVKTKLFSLEHFLNELILFQKGQTNTPPPFEIFFCFGEEWPDRKPREKKLITVQVVPVAARLLLEMFSGELSWSADSIRLQISNPDLKDRMVEQFKELHHIWQSQQRLQPVAQAPPGAGLGVGQGPWPMHPAGMQ
notes: Expressed in HEK-293-TLR4-CD14/Md2 cells and purified on Strep-Tactin after formaldehyde cross-linking; also called onestrep-IRF5-HA; IRF5 with an N-terminal one-strep tag and a C-terminal HA tag; not shown: N-terminal one-strep tag; C-terminal HA tag

Data set [1] addresses T1, IRF5 DBD (aa 1-131) (Homo sapiens, UniProt Q13568 SEQ:1-131). Description: EMSA; 50 ng IRF5 DBD; ISRE 1/2 said to interact in vitro. The conditions noted are these: tags: expressed from pET21d in bacteria; label: 32P (dCTP fill-in); 5' agct overhangs. How it is done: (§1) (A) Recombinant purified IRF5-DBD was used in an EMSA with radioactive probe corresponding to the selected ISRE and κB sites. PRDI-III (IFN-˜ promoter) was used as a positive control.
(§2) Binding reactions with 50 ng of bacterially expressed and purified IRF5 DBD and EMSA gel separation were performed as previously described⁵.
Background: A gel shift assay detects complexes by their altered migration in electrophoresis.

Data set [2] has as its target T1, IRF5 DBD (aa 1-131). The data set can be described thus: EMSA; 50 ng IRF5 DBD. The conditions noted are these: tags: expressed from pET21d in bacteria; label: 32P (dCTP fill-in); 5' agct overhangs. The procedure: as §1, §2
Data set [3] deals with B5. Description: Strep-Tactin pull-down of one-strep-IRF5-HA from formaldehyde-cross-linked HEK-293 cells, immunoblot. How it is done:
(§3) HEK-293-TLR4-CD14/Md2 cells were transfected with onestrep-IRF5-HA construct or corresponding empty vector. 24 hrs post transfection cells were fixed with 1% formaldehyde for 10 minutes at room temperature prior to high salt lysis and affinity purification on Strep-Tactin MacroPrep sepharose (IBA). The eluates were de-crosslinked by incubating at 65° C. overnight prior to separation by SDS-PAGE. Exogenous IRF5 and endogenous RelA were detected by immunoblotting with anti-HA-HRP (12013819001, Roche) and anti-RelA (sc-372, Santa-Cruz, US). Alternatively, cells were transfected with RelA-FLAG or BAP-FLAG control protein. 24 hrs post transfection cells were lysed and affinity purified with anti-FLAG M2 sepharose beads (Sigma, UK). Exogenous RelA and endogenous IRF5 were detected by immunoblotting with anti-FLAG-HRP (A8592, Sigma, UK) and anti-IRF5 (Abcam, UK). Interaction of endogenous RelA and IRF5 was detected by overnight incubation of the cell lysates with goat anti-IRF5 antibody (ab2932, Abcam, UK) or no antibody control prior to precipitation with protein G beads. IRF5 was detected by immunoblotting with mouse anti-IRF5 antibody (sc-56714, Santa-Cruz, USA) while RelA—by immunoblotting with anti-RelA. Triton X-100 extracted nuclei and DNase I digestion of chromatin was performed as described previously¹⁷.
(§4) IRF5 with an N-terminal one-strep tag and a C-terminal HA tag was expressed in HEK-293 cells. […] To determine whether this interaction was specific, we immunoblotted for other NE-κB family members: Rel-B, c-Rel, p50 and p52, or a control protein tubulin. […] Furthermore we conducted a complementary experiment, in which human RelA containing C-terminal FLAG tag was expressed in HEK-293 cells and immunoprecipitated in the absence of a cross-linking agents on anti-FLAG sepharose. Specific interactions between ectopically expressed RelA and endogenous IRF5 were observed. No interaction was detected between a control FLAG-tagged bacterial alkaline phosphatase (BAP) and IRF5 (FIG. 24B, compare lanes 1 and 2).
For orientation: In western blotting, separated proteins are transferred to a membrane and probed.

Data set [4] concerns the target T2, human RelA containing C-terminal FLAG tag (human, UniProt Q04206 1-551).
T2 construct: Expressed in HEK-293 cells; also called RelA-FLAG; Flag-tagged RelA; not shown: C-terminal FLAG tag
The data set can be described thus: One-Strep affinity purification from co-transfected HEK293-TLR4-CD14/Md2 cells, Western blot.

Another data set deals with T3, c-Rel (UniProt Q04864 2-619, limits assumed).
T3 construct: Endogenous protein in HEK-293 lysate, probed by immunoblot
T3 sequence (looked up): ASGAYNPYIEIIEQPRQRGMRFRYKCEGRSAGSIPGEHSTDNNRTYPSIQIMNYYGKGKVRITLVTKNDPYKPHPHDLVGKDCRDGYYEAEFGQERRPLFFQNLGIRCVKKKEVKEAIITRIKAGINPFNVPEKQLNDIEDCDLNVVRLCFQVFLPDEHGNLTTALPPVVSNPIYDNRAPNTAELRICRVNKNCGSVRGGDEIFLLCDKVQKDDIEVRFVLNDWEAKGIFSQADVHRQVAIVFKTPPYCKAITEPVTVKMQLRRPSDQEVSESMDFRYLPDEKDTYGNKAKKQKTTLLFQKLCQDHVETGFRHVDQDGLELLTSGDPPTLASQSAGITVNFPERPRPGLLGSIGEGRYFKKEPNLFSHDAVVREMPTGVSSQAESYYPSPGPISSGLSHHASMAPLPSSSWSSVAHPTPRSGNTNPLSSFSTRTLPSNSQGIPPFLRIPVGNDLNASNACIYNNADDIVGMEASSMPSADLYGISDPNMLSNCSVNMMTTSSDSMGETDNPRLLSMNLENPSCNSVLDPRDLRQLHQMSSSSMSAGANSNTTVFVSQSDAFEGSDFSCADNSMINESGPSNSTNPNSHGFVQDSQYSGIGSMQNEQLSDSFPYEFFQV
Description: Strep-Tactin pull-down of one-strep-IRF5-HA from formaldehyde-cross-linked HEK-293 cells, immunoblot. The procedure: as §3, §4

Another data set deals with T4, Rel-B (UniProt Q01201 1-579).
T4 construct: Endogenous protein in HEK-293 lysate, probed by immunoblot
T4 sequence (looked up): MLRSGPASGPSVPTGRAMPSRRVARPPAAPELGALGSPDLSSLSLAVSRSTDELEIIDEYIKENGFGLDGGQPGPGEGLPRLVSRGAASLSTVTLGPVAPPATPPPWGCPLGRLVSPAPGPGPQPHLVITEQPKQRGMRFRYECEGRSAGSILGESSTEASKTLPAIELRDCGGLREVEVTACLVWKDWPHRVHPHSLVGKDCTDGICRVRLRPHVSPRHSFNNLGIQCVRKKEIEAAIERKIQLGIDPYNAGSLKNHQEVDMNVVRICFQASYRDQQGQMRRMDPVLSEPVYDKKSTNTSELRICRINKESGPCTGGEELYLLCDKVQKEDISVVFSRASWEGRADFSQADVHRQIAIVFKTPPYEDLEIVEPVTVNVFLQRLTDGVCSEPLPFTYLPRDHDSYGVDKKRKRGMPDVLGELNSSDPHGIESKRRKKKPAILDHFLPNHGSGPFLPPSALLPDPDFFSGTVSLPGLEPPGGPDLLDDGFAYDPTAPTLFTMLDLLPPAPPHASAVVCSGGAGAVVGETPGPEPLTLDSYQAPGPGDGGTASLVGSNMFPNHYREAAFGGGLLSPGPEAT
The data set is described as above. How it is done: as §3, §4

Data set [5] deals with T1, IRF5 DBD (aa 1-131). The data set can be described thus: EMSA; non-consensus ISRE. The conditions noted are these: tags: expressed from pET21d in bacteria; label: 32P (dCTP fill-in); 5' agct overhangs. The procedure: as §1, §2

The values that follow come from US20140030218A1, “Treatment And Screening” (IMPERIAL INNOVATIONS LIMITED, published 2014).

T2 sequence (Q04206 other isoform, or with tags, fused parts or gaps): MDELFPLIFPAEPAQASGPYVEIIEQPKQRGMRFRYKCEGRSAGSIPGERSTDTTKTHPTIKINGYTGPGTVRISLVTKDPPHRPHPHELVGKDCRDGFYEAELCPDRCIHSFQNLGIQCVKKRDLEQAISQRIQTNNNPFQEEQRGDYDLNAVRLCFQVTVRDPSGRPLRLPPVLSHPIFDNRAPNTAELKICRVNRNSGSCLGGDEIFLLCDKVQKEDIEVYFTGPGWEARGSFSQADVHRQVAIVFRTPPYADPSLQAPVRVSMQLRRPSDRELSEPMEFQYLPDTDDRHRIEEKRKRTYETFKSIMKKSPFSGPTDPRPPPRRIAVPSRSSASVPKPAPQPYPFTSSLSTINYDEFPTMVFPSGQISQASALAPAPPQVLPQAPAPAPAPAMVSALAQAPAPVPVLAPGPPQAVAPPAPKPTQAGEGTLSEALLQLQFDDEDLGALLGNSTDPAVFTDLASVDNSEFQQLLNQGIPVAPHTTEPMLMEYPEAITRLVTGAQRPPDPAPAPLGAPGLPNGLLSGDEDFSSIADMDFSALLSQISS

B1: TNF ISRE1 (dsDNA)
DNA 1: AGCTGAAGCCAAGACTGAAACCAGCATTA
DNA 2: AGCTTAATGCTGGTTTCAGTCTTGGCTTC
On to B1, for which the binding result in the data set with IRF5 DBD (aa 1-131) [1] is reported as “binds”.

B2: TNF kB4a (dsDNA)
DNA 1: AGCTAACTCTGGGAATTCCAATCCTT
DNA 2: AGCTAAGGATTGGAATTCCCAGAGTT
Take B2: the binding result with IRF5 DBD (aa 1-131) [2] is “no binding”.

B3: p50 (other, UniProt P19838 1-433, looked up)
chain: MAEDDPYLGRPEQMFHLDPSLTHTIFNPEVFQPQMALPTDGPYLQILEQPKQRGFRFRYVCEGPSHGGLPGASSEKNKKSYPQVKICNYVGPAKVIVQLVTNGKNIHLHAHSLVGKHCEDGICTVTAGPKDMVVGFANLGILHVTKKKVFETLEARMTEACIRGYNPGLLVHPDLAYLQAEGGGDRQLGDREKELIRQAALQQTKEMDLSVVRLMFTAFLPDSTGSFTRRLEPVVSDAIYDSKAPNASNLKIVRMDRTAGCVTGGEEIYLLCDKVQKDDIQIRFYEEEENGGVWEGFGDFSPTDVHRQFAIVFKTPKYKDINITKPASVFVQLRRKSDLETSEPKPFLYYPEIKDKEEVQRKRQKLMPNFSDSFGGGSGAGAGGGGMFGSGGGGGGTGSTGPGYSFPHYGFPTYGGITFHPGTTKSNAGMKHG
notes: Endogenous protein in HEK-293 lysate, probed by immunoblot; also called NF-kB p50
With B3, the binding result in data set [3] was “no binding”.

B4: One-Strep-IRF5 fusion protein (other)
chain: MNQSIPVAPTPPRRVRLKPWLVAQVNSCQYPGLQWVNGEKKLFCIPWRHATRHGPSQDGDNTIFKAWAKETGKYTEGVDEADPAKWKANLRCALNKSRDFRLIYDGPRDMPPQPYKIYEVCSNGPAPTDSQPPEDYSFGAGEEEEEEEELQRMLPSLSLTEDVKWPPTLQPPTLQPPVVLGPPAPDPSPLAPPPGNPAGFRELLSEVLEPGPLPASLPPAGEQLLPDLLISPHMLPLTDLEIKFQYRGRPPRALTISNPHGCRLFYSQLEATQEQVELFGPISLEQVRFPSPEDIPSDKQRFYTNQLLDVLDRGLILQLQGQDLYAIRLCQCKVFWSGPCASAHDSCPNPIQREVKTKLFSLEHFLNELILFQKGQTNTPPPFEIFFCFGEEWPDRKPREKKLITVQVVPVAARLLLEMFSGELSWSADSIRLQISNPDLKDRMVEQFKELHHIWQSQQRLQPVAQAPPGAGLGVGQGPWPMHPAGMQ
notes: also called full-length IRF5 (One-Strep bait); not shown: One-Strep tag
In the case of B4, in data set [4], the binding result was “binds”.

Regarding B5, the binding result with c-Rel and with Rel-B was “no binding” throughout.

B6: TNF 'ISRE'17 (dsDNA)
DNA 1: AGCTACATAAACAAAGCCCAACAGAATATTCC
DNA 2: AGCTGGAATATTCTGTTGGGCTTTGTTTATGT
B6: the binding result with IRF5 DBD (aa 1-131) [5] is “no binding”.

B7: TNF kB4b (dsDNA)
DNA 1: AGCTCTTGCTGGGAAAATCCTGCAG
DNA 2: AGCTGCTGCAGGATTTTCCCAGCAAG
In the case of B7, the binding result in the data set with IRF5 DBD (aa 1-131) [2] is on record as “no binding”.

B8: p52 (other, UniProt Q00653 1-454, looked up)
chain: MESCYNPGLDGIIEYDDFKLNSSIVEPKEPAPETADGPYLVIVEQPKQRGFRFRYGCEGPSHGGLPGASSEKGRKTYPTVKICNYEGPAKIEVDLVTHSDPPRAHAHSLVGKQCSELGICAVSVGPKDMTAQFNNLGVLHVTKKNMMGTMIQKLQRQRLRSRPQGLTEAEQRELEQEAKELKKVMDLSIVRLRFSAFLRASDGSFSLPLKPVISQPIHDSKSPGASNLKISRMDKTAGSVRGGDEVYLLCDKVQKDDIEVRFYEDDENGWQAFGDFSPTDVHKQYAIVFRTPPYHKMKIERPVTVFLQLKRKRGGDVSDSKQFTYYPLVEDKEEVQRKRRKALPTFSQPFGGGSHMGGGSGGAAGGYGGAGGGGSLGFFPSSLAYSPYQSGAGPMGCYPGGGGGAQMAATVPSRDSGEEAAEPSAPSRTPQCEPQAPEMLQRAREYNARLFGLA
notes: Endogenous protein in HEK-293 lysate, probed by immunoblot; also called NF-kB p52
With B8, the binding result in data set [3] was “no binding”.

B9: TNF 'ISRE'16 (dsDNA)
DNA 1: AGCTTTTGCTTAGAAAAGAAACATGGTCTC
DNA 2: AGCTGAGACCATGTTTCTTTTCTAAGCAAA
In the case of B9, the binding result with IRF5 DBD (aa 1-131) [5] is given as “no binding”.
